Experimental findings from patent CN114874324A (dated 2022) are described below.

The target of experiment [1] is T1, 可溶性LAG-3蛋白标准品(R&D Systems) (human, UniProt P18627 23-450, limits assumed).
T1 construct: also called sLAG-3蛋白; sLAG-3
T1 sequence (looked up): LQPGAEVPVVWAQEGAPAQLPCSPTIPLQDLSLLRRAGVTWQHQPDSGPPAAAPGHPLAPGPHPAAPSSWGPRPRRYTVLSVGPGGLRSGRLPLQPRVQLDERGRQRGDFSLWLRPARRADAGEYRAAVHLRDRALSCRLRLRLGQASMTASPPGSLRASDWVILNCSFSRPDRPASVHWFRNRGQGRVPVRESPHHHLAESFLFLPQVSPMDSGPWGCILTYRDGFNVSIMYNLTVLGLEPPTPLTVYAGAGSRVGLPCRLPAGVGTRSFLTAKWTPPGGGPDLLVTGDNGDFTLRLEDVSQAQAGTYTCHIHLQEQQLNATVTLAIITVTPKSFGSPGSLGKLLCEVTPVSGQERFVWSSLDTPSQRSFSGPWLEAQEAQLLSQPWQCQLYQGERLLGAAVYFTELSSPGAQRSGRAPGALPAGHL
Description: sandwich ELISA of the kit (4F4 and 4E12 as the antibody pair). For orientation: In an ELISA, binding on a coated surface is turned into a signal by an enzyme label.

The target in experiment [2] is T1, 可溶性LAG-3蛋白标准品(R&D Systems). Description: sandwich ELISA, wells pre-coated with 4E12.

B1: LAG-3-4F4抗体 (antibody, V domains shown)
VH: QLQLKESGPEVVRPGVSVKISCKGSGYTFTDYAMYWVKQSHAKSLEWIGVISTYNGNTNYNQRFKGKATMTVDKSSSTAYMELARLTSEDSAIYYCARERGAMDYWGQGTSVTVSS
VL: DVLMTQTPLSLPVSLGDQASISCRSSQSIVHNNGNTYLEWYLQKPGQSPKLLIYKVSSRFSGVPDRFSGSGSGTDFTLKISRVEAEDLGIYYCFQGSHVPPTFGGGTKLEIK
notes: Mouse (BALB/c) hybridoma monoclonal antibody; also called 抗人LAG-3-4F4单克隆抗体; LAG-3包被抗体
In the case of B1, the binding result in experiment [1] is “binds”.

B2: LAG-3-4E12抗体 (antibody, V domains shown)
VH: EVKLVESGGGLVQPGGSLKLSCAVSGFAIRSYDMSWVRQTPEKRLEWVATISSGGSYSYYPDSVKGRFTISRDNARNTLYLQMSSLRSEDTALYYCASLSTAPAYWGQGTLVTVSA
VL: DIVMTQSQKFMSTSVGDRVSVTCKASQNVGTNVAWYQQKPGQSPKALIYSASYRYSGVPDRFTGSGSGTDFTLTISNVQSEDLAEYFCQQYNTYPHMYTFGGGTKLEIK
notes: Mouse (BALB/c) hybridoma monoclonal antibody; also called LAG-3-4E12单克隆抗体; 抗LAG-3单抗(克隆:4E12)
Consider B2, for which the binding result in experiment [2] was “binds”.
